Reference: patent US5889152A, “Porphenins--antibiotic peptides” (Regents of the University of California, priority 1995, dated 1999)
Where no end group is shown, it is not given here.

B1: Prophenin-1: 79-residue proline-rich antimicrobial peptide purified from porcine leukocytes, mass 8,683, SEQ ID NO:1 (protein)
chain: AFPPPNVPGPRFPPPNFPGPRFPPPNFPGPRFPPPNFPGPRFPPPNFPGPPFPPPIFPGPWFPPPPPFRPPPFGPPRFP

Columns and labels:
[1] = system: C. albicans, strain 820; experiment: Radial diffusion assay in agarose gels, C. albicans; assay type: cell-based, Candida albicans; conditions: clear zone units
Method: (§1) Aliquots (66 μl) of each fraction were dried by vacuum centrifugation, and resuspended in approximately 6.6 μl of 0.01% acetic acid. […] samples of this concentrate were tested for antimicrobial activity against E. coli ML-35, L. monocytogenes, Strain EGD and C. albicans, strain 820 by radial diffusion and gel overlay techniques (Lehrer, R. I. et al. J Immunol Meth (1991) 137:167-173). Active fractions were further examined by acid-urea PAGE and SDS-PAGE. Prophenins emerged from the P10 column in fractions 38-43 (39.6 ml total volume), which contained a total of 18 mg protein by BCA analysis.
(§2) The radial diffusion assay in agarose gels as described above was also used to test the activity of the purified prophenins. Samples of 5 μL each were added to 3 mm wells in thin gels composed of 10 mM sodium phosphate, 30 mg/ml trypticase soy broth powder in 1% agarose and containing approximately 4×10^5 CFU/ml of mid-log phase organisms. After allowing 3 hours for the samples to diffuse into the underlayer gel, a nutrient-rich overlay gel was poured and the plates were incubated for 24 hours at 37° C. to allow surviving organisms to form microcolonies. The diameters of the clear zones were measured and expressed in "units" (10 units=1 mm) as described previously.

[2] = system: E. coli ML-35; experiment: Radial diffusion assay in agarose gels, E. coli; assay type: cell-based; conditions: for inhibitory activity (FIG. 4a): E. coli ML-35, clear zone units
Method: as §1, §2

[3] = system: lipid polysaccharide (LPS) of the Gram-negative bacterium E. coli strain 0.55B5; experiment: Limulus amebocyte lysate (LAL) test for endotoxin binding; assay type: biochemical; conditions: for concentration giving complete inhibition of gelation / concentration giving complete inhibition of gelation, molar: LAL test; for LAL gel formation: peptide 0.63 μg/ml (.625 in Table 4), LPS 0.05 endotoxin unit/ml
Method: The prophenins of the invention were tested for their ability to bind the lipid polysaccharide (LPS) of the Gram-negative bacterium E. coli strain 0.55B5. The assay was the Limulus amebocyte lysate (LAL) test for endotoxins conducted in the presence and absence of the test compounds. The test was conducted using the procedure described in Sigma Technical Bulletin No. 210 as revised in December 1992 and published by Sigma Chemical Company, St. Louis, Mo.
The LAL test is based on the ability of LPS to effect gelation in the commercial reagent E-TOXATE™ which is prepared from the lysate of circulating amebocytes of the Horseshoe Crab Limulus polyphemus. As described in the technical bulletin, when exposed to minute quantities of LPS, the lysate increases in opacity as well as viscosity and may gel or clot depending on the concentration of endotoxin. The technical bulletin goes on to speculate that the mechanism appears analogous to the clotting of mammalian blood and involves the steps of activation of a trypsin-like preclotting enzymes by the LPS in the presence of calcium ion, followed by enzymic modifications of a "coagulogen" by proteolysis to produce a clottable protein. These steps are believed tied to the biologically active or "pyrogenic" portion of the molecule. It has been shown previously that detoxified LPS (or endotoxin) gives a negative LAL test.
Polymyxin B is a cyclic 1.2 kD acylated […] obtained from Bacillus polymyxa. Polymyxin B was used as a positive control since it is known to inhibit LPS-induced Limulus hemocyte lysate clotting.
In the assay, the amounts of prophenin-1 and polymyxin B (78% free polymyxin, Sigma) were preincubated in a final volume of 0.2 ml and the test mixtures contained LPS at a final concentration of 0.05 endotoxin unit/ml and E-TOXATE™ at the same concentration. The test compounds were incubated together with the LPS for 15 minutes before the E-TOXATE™ was added to a final volume (after E-TOXATE™ addition) of 0.2 ml. The tubes were then incubated for 60 minutes at 37° C. and examined for the formation of a gel.
The ability of fragments of prophenin-1 to bind LPS was also assayed. Prophenin-1 was digested with TLCK treated trypsin as described above, thus cleaving the protein C-terminal to the initial 4 arginines. The fragments were purified by RP-HPLC, and their identities were verified by ESI-MS and amino acid composition analysis. The three fragments were those obtained as described in Example 1 and are as follows: […]

[4] = system: L. monocytogenes, Strain EGD; experiment: Radial diffusion assay in agarose gels, L. monocytogenes; assay type: cell-based, Listeria monocytogenes
Method: as §1, §2

Molecule	inhibitory activity (FIG. 4c) [1]	inhibitory activity (FIG. 4a) [2]	concentration giving complete inhibition of gelation [3]	concentration giving complete inhibition of gelation, molar [3]	LAL gel formation [3]	concentrations at which some activity was shown ([4]; FIG. 4b)	inhibitory activity (FIG. 4b) ([4]; clear zone units)	LPS binding / inactivation in words [3]	potency in binding LPS relative to polymyxin B sulfate, molar basis ([3]; 4.2/0.072)	specificity for Gram-negative bacteria ([2]; compared over E. coli, L. monocytogenes, C. albicans)
HNP-1: human defensin (HNP-1), control	substantially noninhibitory									
PG-3: protegrin-3 (PG3), control (RGGGLCYCRRRFCVCVGR; ends and bridges not checked; cysteine pairing not given here; UniProt P32196 131-148, looked up) [reference compound]	successful antifungals	more inhibitory than HNP-1								
Polymyxin B [reference compound]			5 µg/mL	≈ 4.2 μM	++					
B1	substantially noninhibitory	comparable in inhibitory activity to PG3 and NP1	0.625 µg/mL	≈ 72 nM	0	above 100 μg/ml	substantially less inhibitory	more effective than the additive value of the subunits	approximately 60 fold	highly specific for Gram-negative bacteria
